Results reported in patent publication US20110239327A1, “Nematicidal Effects of Cysteine Proteinases and Methods of Use Thereof to Treat Nematode Infestation” (priority 2007, published 2011).

What was measured:
M. incognita J2 [1] = experiment: In planta bioassay, one soil application: nematode infection of tomato roots; assay type: in vivo, M. incognita on tomato plants; conditions: with or without Vydate 125 μl; for Mean number of nematodes in roots: soil 16% organic matter, 11 days; for Reduction of nematode infection of tomato plants: vs controls
Procedure: Oxamyl is supplied as 10% liquid Vydate. 125 μl of a solution 1000 fold dilution of 10% formulation (kindly supplied by DK from NIU) was applied to 5 g of the soil mixture with 16% organic matter, to give a partial nematicidal effect. Soil mixtures were wetted with PBS pH 7.2, 16 hrs prior nematode application of 1000 or 2000 M. incognita J2. Infected soil mixtures were treated with water (control) or 250 μM of active papain in 16 mM of L-cysteine or a combination of Vydate and 250 μM of active papain in 16 mM of L-cysteine. After 48 hs tomato seedlings one month old were added to the treated soils. After 11 days the roots were washed free of soil and chopped to approximately 2 mm pieces. The root pieces of each tomato plant was placed in muslin bags and stained with acid-fuchsin. The stained roots were examined under microscope and all the nematodes present in the roots were counted. In some experiments the soil mixture was wetted with PBS pH 7.2 or 250 μM of active papain for 16 hs to block the non-specific binding site present in the soil particles. After that approximately 1000 M. incognita J2 were applied to soil mixtures, followed by application of 250 μM of active papain in presence of 16 mM of L-cysteine, or water (control) or Vydate alone or a combination of 250 μM of active papain in presence of 16 mM of L-cysteine and Vydate. After 48 hours tomato seedlings one month old were added to the treated soils and after 11 days post infection nematode development inside root tissues was assessed as described above.
Approximately 2000 J2 of M. incognita were added to 5 g of 1:6 loam and sand which was previously wetted for 16 hs with PBS pH 7. Then a solution of 300 μM or 150 μM of active papain (in 16 mM of L-cysteine) with and without 125 μl Vydate was added to soil and left to react for 48 hs. After this period of time tomato seedlings one month old were added to the treated soil mixtures and placed in a glasshouse at 23° C. in a 16:8 h light-dark regime (Table 1). After 11 days nematode development in the root tissue was assessed.

Heterorhabditis megidis = experiment: In vitro effect on the beneficial nematode Heterorhabditis megidis; assay type: cell-based
Procedure: (§1) Eggs of M. incognita race 1 from North Carolina State University, USA were collected from tomato-infected roots grown in a glasshouse at 23° C. in a 16:8 h light-dark regime. Eggs were extracted using 1% hypochlorite (NaClO) solution (Hussey and Barker, 1973) or by picking egg masses from tomato-infected roots. Juveniles (J2) were hatched from the eggs and egg masses in water. Heterodera glycines eggs were obtained from soil samples stored in Rothamsted-Research. Second stage juveniles (J2) were hatched from the eggs in water after 10 days. Pratylenchus penetrans were a gift from Dr. Deeren Anne-Marie from the Institute for Agricultural and Fisheries Research, Merelbeke, Belgium. The beneficial nematodes Steinernema feltiae and Heterorhabditis megidis were a gift from Dr. Paul Williams from Becker Underwood.
(§2) Control wells were set up which contained J2s and distilled water with 16 mM L-cysteine. Each enzyme concentration and the controls were set up in duplicate (i.e. n=2). The actual number of active J2s per well was counted with the aid of an Olympus inverted microscope, prior to the addition of the enzymes, and then the J2s were incubated in the dark at room temperature for 2 hs, 16 hs, 24 hs or 40 hr. The number of live and dead J2s per well was counted after each enzyme incubation. The same procedure was followed when setting up further experiments to compare the effects of these enzymes with Heterodera glycines J2, Pratylenchus penetrans, Steinernema feltiae and Heterorhabditis megidis.
(§3) The beneficial nematodes Hetorhabditis megidis and Steinernema feltiae were incubated with dilutions of actinidin, bromelain and pappain from papaya latex (see concentrations used in table 3). These nematodes reacted differentially to these cysteine proteinases (Tables 4 and 5). […] S. feltiae were dead at all concentrations of actinidin tested. […] After 16 hs of observation the enzyme solutions were diluted with water (to half of the initial concentrations) however, no change in nematode movement was observed after 24 hs.

[2] = test system: adult females of M. incognita; experiment: Light microscopy of Meloidogyne adult female worms incubated with papain; assay type: cell-based; set-up: digestion of the cuticle of adult females: dose or concentration left out as unconfirmed
Procedure: To assess whether these enzymes also affected the cuticles of other stages of the nematodes, five adult females of M. […], prepared in 16 mM L-cysteine dissolved in phosphate buffered saline (PBS), pH 7.4, or PBS, pH 7.4 with and without 16 mM L-cysteine. These nematodes were incubated in the dark at ambient temperature for 4 h and were then examined using a light microscope at ×10 and ×20 magnification to observe any differences to the nematode body wall.

M. incognita J2 [3] = experiment: In vitro live/dead count of M. incognita J2 in solution without soil (Example 2); assay type: cell-based; conditions: after 40 hs of observation, at the nematicidal concentration
Procedure: as §1, with “Underwood. […]” for “Underwood.”
Control wells were set up which contained J2s and distilled water with 16 mM L-cysteine. […] The actual number of active J2s per well was counted with the aid of an Olympus inverted microscope, prior to the addition of the enzymes, and then the J2s were incubated in the dark at room temperature for 2 hs, 16 hs, 24 hs or 40 hr. The number of live and dead J2s per well was counted after each enzyme incubation. […]

Heterodera glycines J2 = experiment: In vitro live/dead count of Heterodera glycines J2; assay type: cell-based; conditions: 250 μM active papain
Procedure: as §1
as §2, with “The actual number of active J2s per well was counted with the aid of an Olympus inverted microscope, prior to the addition of the enzymes, and then the J2s were incubated in the dark at room temperature for 2 hs, 16 hs, 24 hs or 40 hr.” left out

Pratylenchus penetrans = experiment: In vitro live/dead count of Pratylenchus penetrans; assay type: cell-based; set-up: concentration of papain latex that killed the nematodes: unit not given here
Procedure: as §1
as §2, with “The actual number of active J2s per well was counted with the aid of an Olympus inverted microscope, prior to the addition of the enzymes, and then the J2s were incubated in the dark at room temperature for 2 hs, 16 hs, 24 hs or 40 hr.” left out

Steinernema feltiae = experiment: In vitro effect on the beneficial nematode Steinernema feltiae; assay type: cell-based
Procedure: as §1, §2, §3

B1: papain (protein, UniProt P00784 134-345, looked up)
Papain: IPEYVDWRQKGAVTPVKNQGSCGSCWAFSAVVTIEGIIKIRTGNLNEYSEQELLDCDRRSYGCNGGYPWSALQLVAQYGIHYRNTYPYEGVQRYCRSREKGPYAAKTDGVRQVQPYNEGALLYSIANQPVSVVLEAAGKDFQLYRGGIFVGPCGNKVDHAVAAVGYGPNYILIKNSWGTGWGENGYIRIKRGTGNSYGVCGLYTSSFYPVKN
notes: cysteine proteinase from Carica papaya, Merops C01.001, Sigma P3125
Mean number of nematodes in roots (M. incognita J2 [1]; papain 150 μM): 272
Reduction of nematode infection of tomato plants (M. incognita J2 [1]; papain 150 μM): 14%
Mean number of nematodes in roots (M. incognita J2 [1]; papain 300 μM): 132
Reduction of nematode infection of tomato plants (M. incognita J2 [1]; papain 300 μM): 60%
effect on H. megidis (Heterorhabditis megidis; papain 15 μM): not affected anymore
movement of H. megidis (Heterorhabditis megidis; papain 62.4 μM): moving slowly
digestion of the cuticle of adult females (light micrographs) ([2]; 25 μM active papain, 4 h): Digestion of the cuticle was evident
digestion of the cuticle of adult females ([2]; active papain): digestion of the cuticle was evident
recovery of movement (M. incognita J2 [3]): not able to recover movement
state of the nematodes after incubation (Heterodera glycines J2; 16 hs): dead
recovery (Heterodera glycines J2; after 48 hs): no recovery
concentration of papain latex that killed the nematodes (Pratylenchus penetrans): 62.504
recovery of mobility (Pratylenchus penetrans; after 48 hs): no recovery of mobility
only papain concentration that affected S. feltiae movement (Steinernema feltiae): 250 µM
nematode motility or behaviour (Steinernema feltiae; enzyme concentration A (Table 3): actinidin 3.3 mM, bromelain 2.2 mM, papain 250 uM): 70% paralysed
nematode motility or behaviour (Steinernema feltiae; enzyme concentration B: actinidin 1.7 mM, bromelain 1.1 mM, papain 125 uM): All moving slowly
